Results published in the RNAGym collection of RNA variant scans (doi:10.7554/elife.90254).

B1: LINE1-mini (parent)
chain: GGCAGAGCUCAACACAGCGUGGCAAAGUGGCUGUGGCUAGACUGCC

Variants of: B1
Assay: self-cleavage, relative activity (ratio to wild type); higher = more cleavage; in vitro, sequencing; the parent is a self-cleaving ribozyme

| Variant | self-cleavage |
| --- | --- |
| GGCAGAGCUCAACACAGCGUGGCAAAGUAGCUGUGGGUAGACUGCC [G29A C37G] | 0.02 |
| GGCAGAGCUCAACACAGCGUGGCAAAGGGGCUGUGCCUAGACUGCC [U28G G36C] | 0.05 |
| GGCAGAGCUCAACACAGCGUGGCAAAGGGGCUGUGUCUAGACUGCC [U28G G36U] | 0.12 |
| GGCAGAGCUCAACACAGCGUGGCAAAGGGGCUGUGACUAGACUGCC [U28G G36A] | 0.12 |
| GGCAGAGCUCAACACAGCGUGGCAAAGGGGCUGUGGCUAGAUUGCC [U28G C42U] | 0.31 |
| GGCAGAGCUCAACACAGCGUGGCAAAGGGGCUGUGGCUAGAAUGCC [U28G C42A] | 0.18 |
| GGCAGAGCUCAACACAGCGUGGCAAAGGGGCUGUGGCUAGAGUGCC [U28G C42G] | 0.03 |
| GGCAGAGCUCAACACAGCGUGGCAAAGUAGCUGUGGCUAGACUGCC [G29A] | 0.88 |
| GGCAGAGCUCAACACAGCGUGGCAAAGUAACUGUGGCUAGACUGCC [G29A G30A] | 2.29 |
| GGCAGAGCUCAACACAGCGUGGCAAAGUACCUGUGGCUAGACUGCC [G29A G30C] | 1.52 |
| GGCAGAGCUCAACACAGCGUGGCAAAGUAUCUGUGGCUAGACUGCC [G29A G30U] | 1.41 |
| GGCAGAGCUCAACACAGCGUGGCAAAGGGGCUGUUGCUAGACUGCC [U28G G35U] | 0.09 |
| GGCAGAGCUCAACACAGCGUGGCAAAGGGGCUGUCGCUAGACUGCC [U28G G35C] | 0.07 |
| GGCAGAGCUCAACACAGCGUGGCAAAGGGGCUGUAGCUAGACUGCC [U28G G35A] | 0.14 |
| GGCAGAGCUCAACACAGCGUGGCAAAGGGGCUGUGGCUAGACUACC [U28G G44A] | 0.28 |
| GGCAGAGCUCAACACAGCGUGGCAAAGGGGCUGUGGCUAGACUCCC [U28G G44C] | 0.54 |
| GGCAGAGCUCAACACAGCGUGGCAAAGGGGCUGUGGCUAGACUUCC [U28G G44U] | 0.23 |
| GGCAGAGCUCAACACAGCGUGGCAAAGUAGCUGUGGCUAGACUGGC [G29A C45G] | 0.2 |
| GGCAGAGCUCAACACAGCGUGGCAAAGUAGCUGUGGCUAGACUGUC [G29A C45U] | 1.67 |

| Variant | self-cleavage |
| --- | --- |
| GGCAGAGCUCAACACAGCGUGGCAAAGUAGCUGUGGCUAGACUGAC [G29A C45A] | 1.03 |
| GGCAGAGCUCAACACAGCGUGGCAAAGCGGCUGGGGCUAGACUGCC [U28C U34G] | 0.21 |
| GGCAGAGCUCAACACAGCGUGGCAAAGCGGCUGAGGCUAGACUGCC [U28C U34A] | 0.22 |
| GGCAGAGCUCAACACAGCGUGGCAAAGCGGCCGUGGCUAGACUGCC [U28C U32C] | 0.27 |
| GGCAGAGCUCAACACAGCGUGGCAAAGCGGCGGUGGCUAGACUGCC [U28C U32G] | 0.3 |
| GGCAGAGCUCAACACAGCGUGGCAAAGCGGCAGUGGCUAGACUGCC [U28C U32A] | 0.09 |
| GGCAGAGCUCAACACAGCGUGGCAAAGUAGCUUUGGCUAGACUGCC [G29A G33U] | 0.12 |
| GGCAGAGCUCAACACAGCGUGGCAAAGUAGCUCUGGCUAGACUGCC [G29A G33C] | 0.06 |
| GGCAGAGCUCAACACAGCGUGGCAAAGUAGCUAUGGCUAGACUGCC [G29A G33A] | 0.12 |
| GGCAGAGCUCAACACAGCGUGGCAAAGGGGCUGUGGCUCGACUGCC [U28G A39C] | 0.05 |
| GGCAGAGCUCAACACAGCGUGGCAAAGGGGCUGUGGCUUGACUGCC [U28G A39U] | 0.56 |
| GGCAGAGCUCAACACAGCGUGGCAAAGGGGCUGUGGCUGGACUGCC [U28G A39G] | 0.07 |
| GGCAGAGCUCAACACAGCGUGGCAAAGUAGCUGUGGCUAGAUUGCC [G29A C42U] | 0.42 |
| GGCAGAGCUCAACACAGCGUGGCAAAGUAGCUGUGGCUAGAGUGCC [G29A C42G] | 0.04 |
| GGCAGAGCUCAACACAGCGUGGCAAAGUAGCUGUGGCUAGAAUGCC [G29A C42A] | 0.16 |
| GGCAGAGCUCAACACAGCGUGGCAAAGGGGCUGUGGCUAGACUGCA [U28G C46A] | 1.1 |
| GGCAGAGCUCAACACAGCGUGGCAAAGGGGCUGUGGCUAGACUGCU [U28G C46U] | 0.36 |
| GGCAGAGCUCAACACAGCGUGGCAAAGGGGCUGUGGCUAGACUGCG [U28G C46G] | 0.99 |
| GGCAGAGCUCAACACAGCGUGGCAAAGCGGCUGUGCCUAGACUGCC [U28C G36C] | 0.28 |

| Variant | self-cleavage |
| --- | --- |
| GGCAGAGCUCAACACAGCGUGGCAAAGCGGCUGUGACUAGACUGCC [U28C G36A] | 0.1 |
| GGCAGAGCUCAACACAGCGUGGCAAAGCGGCUGUGUCUAGACUGCC [U28C G36U] | 0.11 |
| GGCAGAGCUCAACACAGCGUGGCAAAGCGGCUGUGGCUACACUGCC [U28C G40C] | 0.2 |
| GGCAGAGCUCAACACAGCGUGGCAAAGCGGCUGUGGCUAUACUGCC [U28C G40U] | 0.17 |
| GGCAGAGCUCAACACAGCGUGGCAAAGCGGCUGUGGCUAAACUGCC [U28C G40A] | 0.09 |
| GGCAGAGCUCAACACAGCGUGGCAAAGCGGCUGUGGCUAGACCGCC [U28C U43C] | 0.12 |
| GGCAGAGCUCAACACAGCGUGGCAAAGCGGCUGUGGCUAGACAGCC [U28C U43A] | 0.08 |
| GGCAGAGCUCAACACAGCGUGGCAAAGUAGCUGUGGCUAGACUCCC [G29A G44C] | 0.34 |
| GGCAGAGCUCAACACAGCGUGGCAAAGUAGCUGUGGCUAGACUACC [G29A G44A] | 0.36 |
| GGCAGAGCUCAACACAGCGUGGCAAAGCGGCUGUGGCUAGACUCCC [U28C G44C] | 0.27 |
| GGCAGAGCUCAACACAGCGUGGCAAAGCGGCUGUGGCUAGACUUCC [U28C G44U] | 0.34 |
| GGCAGAGCUCAACACAGCGUGGCAAAGCGGCUGUGGCUAGACUACC [U28C G44A] | 0.67 |
| GGCAGAGCUCAACACAGCGUGGCAAAGUAGCUGUGGCUAGACUGCU [G29A C46U] | 0.82 |
| GGCAGAGCUCAACACAGCGUGGCAAAGUAGCUGUGGCUAGACUGCA [G29A C46A] | 0.89 |
| GGCAGAGCUCAACACAGCGUGGCAAAGUAGCUGUGGCUAGACUGCG [G29A C46G] | 0.74 |
| GGCAGAGCUCAACACAGCGUGGCAAAGGGGCUGUGGCCAGACUGCC [U28G U38C] | 1.1 |
| GGCAGAGCUCAACACAGCGUGGCAAAGGGGCUGUGGCGAGACUGCC [U28G U38G] | 0.02 |
| GGCAGAGCUCAACACAGCGUGGCAAAGGGGCUGUGGCAAGACUGCC [U28G U38A] | 0.19 |
